Reference: patent US20150093787

What follows are sequences tested against Int-His6 (bacteriophage lambda integrase, with IHF; BP Clonase) (Bacteriophage lambda) (UniProt P03700+P0A6X7+P0A6Y1) (assay: cell_activity). Conditions: degenerate pool vs attB1-LacZa-attB2, overnight.
UniProt P03700, sequence (P03700 whole entry, chain 1 of 3): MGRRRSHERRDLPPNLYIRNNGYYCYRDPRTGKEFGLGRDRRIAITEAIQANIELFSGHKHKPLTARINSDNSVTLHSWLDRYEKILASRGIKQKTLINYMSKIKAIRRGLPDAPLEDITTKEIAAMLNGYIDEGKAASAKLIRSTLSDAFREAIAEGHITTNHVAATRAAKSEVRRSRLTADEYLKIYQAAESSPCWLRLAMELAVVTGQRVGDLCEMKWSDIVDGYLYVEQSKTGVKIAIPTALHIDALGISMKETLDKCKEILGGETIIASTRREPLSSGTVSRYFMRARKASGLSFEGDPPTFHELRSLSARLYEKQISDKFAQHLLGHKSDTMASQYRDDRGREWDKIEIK
UniProt P03700, sequence (P0A6X7 2-99, chain 2 of 3): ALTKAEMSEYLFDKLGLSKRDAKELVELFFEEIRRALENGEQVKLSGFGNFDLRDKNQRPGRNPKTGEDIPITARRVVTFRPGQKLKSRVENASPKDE
UniProt P03700, sequence (P0A6Y1 whole entry, chain 3 of 3): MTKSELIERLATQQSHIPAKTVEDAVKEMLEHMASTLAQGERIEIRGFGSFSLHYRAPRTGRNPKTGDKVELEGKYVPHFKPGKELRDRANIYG

Row | Sequence | binding signal [%]
1 | GGGGACCACTTTGTACAAGAAAGCNNNNN (double strand) [attB2n21-25] | 21
2 | GGGGACAAGTTTGTACAAAAAAGCNNNNN (double strand) [attB1n21-25] | 14
3 | GGGGACAAGTTTGTACAAANNNNNAGGCT (double strand) [attB1n16-20] | 1.5
4 | GGGGACCACTTTGTACAAGNNNNNTGGGT (double strand) [attB2n16-20] | 0.9
